According to paper PMC5846730:

Biological target: GbnD4 DHD domain (Burkholderia gladioli BCC0238)
Assay: NMR titration

## GbnD5 apo-DH-ACP di-domain (domain or fragment)
  average apparent KD of the Val19-Glu30 and Ala49-Arg60 regions: 7 to 15 µM
